For assay [1], the target named is T1, cynomolgus 5T4 on cells (HEK-cyno-5T4, transfected HEK293 and CHO cells) (cynomolgus monkey, UniProt Q4R8Y9 35-420).
T1 construct: also called HEK-cyno-5T4 cells
T1 sequence: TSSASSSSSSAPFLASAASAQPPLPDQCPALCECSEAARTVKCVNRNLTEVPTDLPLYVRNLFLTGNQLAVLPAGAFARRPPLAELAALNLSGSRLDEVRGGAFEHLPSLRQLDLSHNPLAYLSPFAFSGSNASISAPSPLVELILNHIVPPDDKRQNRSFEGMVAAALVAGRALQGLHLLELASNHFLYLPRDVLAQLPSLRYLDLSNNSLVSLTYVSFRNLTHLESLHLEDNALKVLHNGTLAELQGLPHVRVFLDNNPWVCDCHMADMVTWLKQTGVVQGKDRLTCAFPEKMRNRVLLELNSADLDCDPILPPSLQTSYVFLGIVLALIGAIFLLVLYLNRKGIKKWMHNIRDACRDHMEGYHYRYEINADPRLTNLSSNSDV
The experiment in a line: cell binding on transfected HEK293 and CHO cells.

The target in assay [2] is T2, mouse 5T4 on transfected HEK293 and CHO cells (mouse, UniProt Q9Z0L0 32-426).
T2 sequence: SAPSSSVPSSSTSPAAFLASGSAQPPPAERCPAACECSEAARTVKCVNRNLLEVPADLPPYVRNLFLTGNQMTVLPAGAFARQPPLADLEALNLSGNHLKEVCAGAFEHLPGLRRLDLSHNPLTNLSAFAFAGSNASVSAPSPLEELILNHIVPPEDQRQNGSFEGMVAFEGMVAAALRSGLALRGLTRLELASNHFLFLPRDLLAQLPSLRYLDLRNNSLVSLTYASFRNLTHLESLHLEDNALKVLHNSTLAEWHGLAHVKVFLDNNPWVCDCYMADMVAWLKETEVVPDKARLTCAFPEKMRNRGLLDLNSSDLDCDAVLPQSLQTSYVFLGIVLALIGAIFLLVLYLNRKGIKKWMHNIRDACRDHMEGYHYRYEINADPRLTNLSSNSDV
Put plainly: cell binding on transfected HEK293 and CHO cells.

Assay [3] addresses T3, biotinylated cynomolgus 5T4 with His-Avi tag (produced in-house) (cynomolgus monkey, UniProt Q4R8Y9 35-355, biotin on the Avi tag).
T3 construct: also called cyno 5T4; Cyno 5T4 Octet (bivalent); not shown: C-terminal 6-His-Avi tag
T3 sequence: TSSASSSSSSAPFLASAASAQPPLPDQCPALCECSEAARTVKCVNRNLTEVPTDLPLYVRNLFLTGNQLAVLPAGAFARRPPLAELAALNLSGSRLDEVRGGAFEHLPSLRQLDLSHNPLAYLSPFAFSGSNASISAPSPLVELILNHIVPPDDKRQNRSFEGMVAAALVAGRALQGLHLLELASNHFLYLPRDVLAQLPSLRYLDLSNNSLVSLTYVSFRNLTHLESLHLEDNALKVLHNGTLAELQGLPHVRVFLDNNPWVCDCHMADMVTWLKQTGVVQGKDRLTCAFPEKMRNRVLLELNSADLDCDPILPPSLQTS
The experiment in a line: summary of Examples 2-5; form of the antigen not given.

Residue numbers refer to the chain shown, from its start.

B1: mAbA17 (antibody, V domains shown)
VH: EVQLVESGGGLVQPGGSLRLSCAASGFTFSRYWIHWVRQAPGKGLEWVAAIFPYSGSTLYADSVKGRFTISADTSKNTAYLQMNSLRAEDTAVYYCARSPSRSILPSGLDYWGQGTLVTVSS
VL: DIQMTQSPSSLSASVGDRVTITCRASQSVSSAVAWYQQKPGKAPKLLIYSASSLYSGVPSRFSGSRSGTDFTLTISSLQPEDFATYYCQQGDGSPYTFGQGTKVEIKR
notes: also called Antibody mAbA17
Turning to B1, the binding result in assay [1] is “binds”.

B2: mAbA4 (antibody, V domains shown)
VH: EVQLVESGGGLVQPGGSLRLSCAASGFTFSRYYIHWVRQAPGKGLEWVAFISPGGSYTYYADSVKGRFTISADTSKNTAYLQMNSLRAEDTAVYYCAREYYSMGVLDYWGQGTLVTVSS
VL: B1 VL with G91A, D92Y, G93E
notes: also called Antibody mAbA4
As to B2, the binding result is “no binding” in assay [2] and “binds” in assay [3].
